Experimental data from CN109721655A (ZONHON BIOPHARMA INST INC, dated 2019).

B1: 杂交瘤细胞株M08的抗体 (mouse monoclonal antibody from hybridoma M08) (antibody, V domains shown)
VH: QVQLQQSGAELAKPGASVKMSCKASGYTFTSYWMHWVKQRPGQGLEWIGYIKPNTDYTEYNQKFKDKATLTADKSSSTAYMQLSSLTSEDSAVYYCTRIRGYALDYWGQGTSVTVSS
VL: DIVMTQSPSSLTVTAGEKVTMICKSSQSLLNSGNQKNYLTWYQQKPGQPPKLLIYWASTRESGVPDRFTGSGSGTDFTLTISSVQAEDLAVYYCQNDYNFPLTFGAGTKLELK
notes: Tested as hybridoma culture supernatant; Mouse IgG, detected with HRP goat anti-mouse IgG
B2: 杂交瘤细胞株M26的抗体 (mouse monoclonal antibody from hybridoma M26) (antibody, V domains shown)
VH: QVQLQQSGDDLVKPGASVKLSCKASGYTFTSYWINWIKQRPGQGLEWIGRIAPEGDSTYYNEMFKGKATLTVDTSSSTAYIQLSSLSSEDSAVYFCAREVRNAMDYWGQGTSVTVSS
VL: DIQMNQSPSSLSASLGDTITITCHASQNIHVWLSWYLQKPGNITKLLIYEASNLHTGVPSRFSGSGSGTGFTLTISSLQPEDIATYYCQQGQRYPLTFGGGTKLEIK
notes: as for B1
B3: 单链抗体M26 (anti-human myoglobin scFv M26, His-tagged, expressed in E. coli) (scFv)
scFv: QVQLQQSGDDLVKPGASVKLSCKASGYTFTSYWINWIKQRPGQGLEWIGRIAPEGDSTYYNEMFKGKATLTVDTSSSTAYIQLSSLSSEDSAVYFCAREVRNAMDYWGQGTSVTVSSGGGGSGGGGSGGGGSDIQMNQSPSSLSASLGDTITITCHASQNIHVWLSWYLQKPGNITKLLIYEASNLHTGVPSRFSGSGSGTGFTLTISSLQPEDIATYYCQQGQRYPLTFGGGTKLEIK
notes: Purified on HisTrap HP; HRP-labelled for the Western blot; Coated on the T line of the nitrocellulose membrane in the test card; also called M26抗体; M26-scFv; not shown: histidine tag added downstream of the scFv gene
B4: 单链抗体M08 (anti-human myoglobin scFv M08, His-tagged, expressed in E. coli) (scFv)
scFv: QVQLQQSGAELAKPGASVKMSCKASGYTFTSYWMHWVKQRPGQGLEWIGYIKPNTDYTEYNQKFKDKATLTADKSSSTAYMQLSSLTSEDSAVYYCTRIRGYALDYWGQGTSVTVSSGGGGSGGGGSGGGGSDIVMTQSPSSLTVTAGEKVTMICKSSQSLLNSGNQKNYLTWYQQKPGQPPKLLIYWASTRESGVPDRFTGSGSGTDFTLTISSVQAEDLAVYYCQNDYNFPLTFGAGTKLELK
notes: Purified on HisTrap HP; HRP-labelled for the Western blot; Coupled to time-resolved fluorescent microspheres in the test card; also called M08抗体; M08-scFv; not shown: histidine tag added downstream of the scFv gene

Legend:
[1] = target: T1, 重组人肌红蛋白 (recombinant human myoglobin, expressed in E. coli, made in-house) (human, UniProt P02144 2-154); experiment: indirect ELISA, hybridoma supernatant on plates coated with recombinant human MYO at 1 μg/mL, HRP goat anti-mouse IgG
T1 construct: also called 人MYO; 重组人MYO
T1 sequence (looked up): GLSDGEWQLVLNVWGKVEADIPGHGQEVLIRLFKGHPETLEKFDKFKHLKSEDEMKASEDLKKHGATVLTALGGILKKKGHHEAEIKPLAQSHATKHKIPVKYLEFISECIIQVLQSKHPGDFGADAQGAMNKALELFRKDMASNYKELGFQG

[2] = target: T1, 重组人肌红蛋白 (recombinant human myoglobin, …); experiment: Western blot of recombinant MYO with HRP-labelled M26 (1:1000)
[3] = target: T1, 重组人肌红蛋白 (recombinant human myoglobin, …); experiment: Western blot of recombinant MYO with HRP-labelled M08 (1:1000)

| Binder | binding result [1] | other results |
| --- | --- | --- |
| B1 | binds | – |
| B2 | binds | – |
| B3 | – | binding result [2]: binds |
| B4 | – | binding result [3]: binds |
